Results from the nanobody polyreactivity screen of Harvey et al. (2022).

Experiment: yeast display, Sf9 membrane polyspecificity reagent, FACS + sequencing; frameworks hold sequencing errors
Method in brief: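 Polyreactivity labels are assigned by the sorting gate from which each nanobody was recovered. The gates were low and high (top ~1%), set on anti-HA fluorescence for expression and streptavidin fluorescence for reagent binding. Before sorting, galactose-induced (36–48 hours) yeast display cells were stained for 1 hour at 4 °C with 10% biotinylated, detergent-solubilized Sf9 membrane reagent.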

## QVQLVESGGGLVQAGGSLRLSCAASGGTFSPNTMGWYRHAPGKERELVAAISSSGSTSYADSVKGRFTISRDNAKNTVYLQMNSLKPEDTAVYYCNADDTISYYASGFDNYDYWGQGSQVTVSS
  polyreactivity (PSR sort gate): low polyreactivity

## QVQLVESGGGLVQAGGSLRLSCAASGGTFSRNAMGWYRQAPGKERELVAAINTSGVSTSYADSVKGRFTISRDNAKNTVYLQMNSLKPEDTAVYYCAAETSSAEVDYWGQGTQVTVSS
  polyreactivity (PSR sort gate): low polyreactivity

## QVQLVESGGGLVQAGGSLRLSCAASGGTFSRNAMGWYRQAPGKERELVAAITWSGTRTYYADSVKGRFTISRDNAKNTVYLQMNSLKPEDTAVYYCATKGRRSADDTLLDYWGQGTQVTVSS
  polyreactivity (PSR sort gate): high polyreactivity

## QVQLVESGGGLVQAGGSLRLSCAASGGTFSTNTMGWYRQAPGKEMELVAAITEGTGNTYYADSVKGRFTISRDTAKNTVYLQMNSLKPEDTAVYDCATVAYSGSDFSGSAGAGDYWGQGTQVTVSS
  polyreactivity (PSR sort gate): low polyreactivity

## QVQLVESGGGLVQAGGSLRLSCAASGGTFSTSAMGWYRQAPGKERELVAAISLSGVRTYYADSVKGRFTISRDNAKNTVYLQMNSLKAEVTAVDYCATRPYSPWRLYYWGQGTQVTGSS
  polyreactivity (PSR sort gate): high polyreactivity

## QVQLVESGGGLVQAGGSLRLSCAASGGTFSTYAMGWYRQAPGKEREFVAAITRSGTSTYYADSVKGRFTISRDNAKNTVYLQMNSLKPEDTAVYYCATGEHFYRKLDYWGQGTQVTVSS
  polyreactivity (PSR sort gate): low polyreactivity

## QVQLVESGGGLVQAGGSLRLSCAASGGTFSVYVMGWYRQAPGKERELVAAIRDRGVSTYYADSVKGRFTISRDNAKNTVYLQMNSEKPEDTAVSYCAAKYSYSRKPGAYYYWGQGTQVTVSS
  polyreactivity (PSR sort gate): high polyreactivity

## QVQLVESGGGLVQAGGSLRLSCAASGGTFTHNAMGWYRQAPGKERELVAAISSSGVRTYYADSVKGRFTISRDNAKNTVYLQMNSLKPEDTAVYYCAADRFRRLHYWTYDYWGQGTQVTVSS
  polyreactivity (PSR sort gate): high polyreactivity

## QVQLVESGGGLVQAGGSLRLSCAASGGTFTKNAMGWYRQAPGKERELVAAINYSGGSTYYADSVKGRFTISRDNAKNTVYLQMNSLKPEDTAVYYCAADDYRDGFTQYDYWGQGTQVTVSS
  polyreactivity (PSR sort gate): low polyreactivity

## QVQLVESGGGLVQAGGSLRLSCAASGGTFTKNPMGWYRQAPGKERELVATITFSDGSTYYADSVKGRFTISRDNAKNTVYLQMNSLKPEDTAVYYCNARRSYFLRYGVNYWGQGTQVTVSS
  polyreactivity (PSR sort gate): low polyreactivity

## QVQLVESGGGLVQAGGSLRLSCAASGGTFTRYAMGWYRQAPGKEREFVAAITFSGGSTYYADSVKGRFTISRDNAKNTVYLQMNSLKPEDTAVYYCAVRERSTYRYYYWGQGTQVTVSS
  polyreactivity (PSR sort gate): high polyreactivity

## QVQLVESGGGLVQAGGSLRLSCAASGGTFTYYAMGWYRQAPGKVRELVAAISWSGGSTYYADSVKGRFTISRDIAKNSVYLQMNSLKPEDSAVYYCAADYTGHFYYYWGQGTQVTVSS
  polyreactivity (PSR sort gate): low polyreactivity

## QVQLVESGGGLVQAGGSLRLSCAASGGTFVGNAMGWYRQAPGKERELVAAISTNSGSTYYADSVKGRFTISRDNAKNTVYLQMNSLKPEDTAVYYCATRNSSKRRGYYYWGQGTQVTVSS
  polyreactivity (PSR sort gate): high polyreactivity

## QVQLVESGGGLVQAGGSLRLSCAASGGTFVYYAMGWYRQAPGKERELVAAINWSGGSTYYADSVKGRFTISRDNAKNTVYLQMNSLKPEDTAVLLLQRSGLRRSGVWFDYWGQGTQVTVSS
  polyreactivity (PSR sort gate): low polyreactivity

## QVQLVESGGGLVQAGGSLRLSCAASGGTFWLYTMGWYRQAPGTERELVAAITKSGGSTYYADSVKGRFTISRDNAMNTVYLQMNSLKPEDTAVYYCAARYSVYRDGYYWGQGTQVTVSS
  polyreactivity (PSR sort gate): high polyreactivity

## QVQLVESGGGLVQAGGSLRLSCAASGGTFWYYDMGWYRQAPGKERELVAAISSGGNTYYADSVKGRFTISRDNAKNTVYLQMNSLKREDNAVYYWAALPKYGSYYYYPPFDYDYWGHGTQVTVSS
  polyreactivity (PSR sort gate): low polyreactivity

## QVQLVESGGGLVQAGGSLRLSCAASGGTFYLYAMGWYRQAPGKERELVAAISRSGGITYYADSVKGRFTISRDNAKNTVYLQMNSLKPEDTAVYYCDAAALSRYRLQEGYYWGQGTQVTVSS
  polyreactivity (PSR sort gate): high polyreactivity

## QVQLVESGGGLVQAGGSLRLSCAASGGTFYRNAMGWYRQAPGKERELVASISRTGGSTYYADSVKGRFTISRDIAKNTVYLQMNSLKPEDTAVYYCAKKQPRYSYFDNDYWGQGTQVTVSS
  polyreactivity (PSR sort gate): high polyreactivity

## QVQLVESGGGLVQAGGSLRLSCAASGGTFYRNDMGWYRQAPGKERELVAVITYRGGSTDYADSVKGRFTISRDNAKNTVYFQMNSLKPEDTAVYYCAVDYTFSYPYEDDYWGQGTQVTVSS
  polyreactivity (PSR sort gate): low polyreactivity

## QVQLVESGGGLVQAGGSLRLSCAASGGTFYVNDMGWYRQAPGKERELVATITYSGTSTYYADSVKGRFTISRDNAKNTVYLQMNSLKAEDTAVYYCATDVLLYFEPVNLDYWGQGTQVTVSS
  polyreactivity (PSR sort gate): low polyreactivity

## QVQLVESGGGLVQAGGSLRLSCAASGGTFYYYAMGWYRQPPGKERELGAAITGTGGRTYYADSVKGRFTISRDNAKNTVSLQMNSLKPEDTAVYYCATDALYGSGYDYWGQGTQVTVSS
  polyreactivity (PSR sort gate): high polyreactivity

## QVQLVESGGGLVQAGGSLRLSCAASGGTIAYNAMGWYRQAPWKERELVAAISSSGGRTYYADSVKGRFTITRDNAKNTVYLQMNRLKPEDTAVYYCATPVTNGFDYWGQGTQVTVSS
  polyreactivity (PSR sort gate): high polyreactivity

## QVQLVESGGGLVQAGGSLRLSCAASGGTILLYAMGWYRQAPGKERELVAGINSGGSTYYADSVKGRFTISRDNAKNTVYLQMNSLKPEDTAVYYCNARSTRYGGDYWGQGTQVTVSS
  polyreactivity (PSR sort gate): low polyreactivity

## QVQLVESGGGLVQAGGSLRLSCAASGGTIVWNAMGWYRQAPGKEREFVAAITSSGGSTYYADSVKGRFTISRDNEKNTVYLQMNSLKPEDTAVYYCNVDTHSSYEFNSWGQGTQVTVSS
  polyreactivity (PSR sort gate): low polyreactivity

## QVQLVESGGGLVQAGGSLRLSCAASGGTLGTYAMGWYRQAPGKERELVASIDSGDSTYYADSVKGRFTISRDNAKNTVYLQMNSLKPEDTAVYYCAAAYFRRYTTTWYGYEYWGQGTQVTVSS
  polyreactivity (PSR sort gate): low polyreactivity

## QVQLVESGGGLVQAGGSLRLSCAASGGTLKYYAMGLYRQAPGKERELVATISSRGGSTYYADSVKGRFTISRDNAKNTVYLQMNSLKPEDTAVYYCARRYWVQSRYPEMDYWGQGTQVTVSS
  polyreactivity (PSR sort gate): high polyreactivity

## QVQLVESGGGLVQAGGSLRLSCAASGGTLWVNTMGWYRQAPGKERELVAAISRRGGSTYYADSVKGRFTISRDNAKNTVYLQKNSLKPEDTAVYYCAKGYSSHYWWAYDSWGQGTQVTVSS
  polyreactivity (PSR sort gate): high polyreactivity

## QVQLVESGGGLVQAGGSLRLSCAASGHIFFYYTMGWYRPAPGKERELVAGITIGGSTNYADSVKGRFTISRDNAKNTVYLQMNSLKPEDTAVYYCNVVKYVYIYSYWEYYYWGQGTQVTVSS
  polyreactivity (PSR sort gate): low polyreactivity

## QVQLVESGGGLVQAGGSLRLSCAASGHIFFYYTMGWYRQAPGKERELVAGITIGGSTNYADSVKGRFTISRDNAKNTVYLQMNSLKPEVTAVYYCARTVYGARSYDYWGQCTQVTVSS
  polyreactivity (PSR sort gate): low polyreactivity

## QVQLVESGGGLVQAGGSLRLSCAASGHTFAYNAMGWYRQAPGKEREFVAAITWSTDNTYYADSVKGRFTISRDNAKNTVYLQMNTLKPEDTAVYYCAVDVYFYYRHYGYWGQGTQVTVSS
  polyreactivity (PSR sort gate): low polyreactivity

## QVQLVESGGGLVQAGGSLRLSCAASGIFASYAMGWYRQAPGKERELVADITWRGGNTFYADSVKGRFTISRDNAKNTVYLQMNSLKPEDTAVYYCAADYRPYLRYTVRGYGYWGQGTKVTVSS
  polyreactivity (PSR sort gate): high polyreactivity

## QVQLVESGGGLVQAGGSLRLSCAASGIFFGGYYLGWYRQAPATEMELVAGIRSGGSTYYADSVKGRFTISRDNAKNTVYLQMNSLKPEDTAVYYCAKPYYWGDYSQSDSDYWGQGTQVTVSS
  polyreactivity (PSR sort gate): low polyreactivity
